{
  "source": "paper PMC6802118",
  "about": "“Isolation of Artemisia capillaris membrane-bound di-prenyltransferase for phenylpropanoids and redesign of artepillin C in yeast” (Communications Biology, 2019)",
  "proteins": {"B1": {"name": "AcPT1 (Artemisia capillaris) (protein)", "chain": "ISKVENNVSAQFQRRGYKNHFGQSLHEPLSLQKMDEEKFKLNAASTNNPQFDATHDLVKPTESVISFLEVLFRFIRPYAAVGTVLCIASMSLLTVEKLSDFSPLFFMKVLQALVGAMFMQMWVCGINQICDIELDKINKPSLPLASGELSMTTAITVSALSAIMSFSIGWIASPALFWGFVGWFVVGTAYSANLPWLRWKRFPLTSAFYMLCSRALVVPIGYYLHMQKSIHGGSALLSRPILFAVGMLSAFCISTIFFKDIPDIEGDRMHGIKSLAITLGEKRTFWMCIWILEIAYVAAAFFGATSPITWSKYITVISHLAMALALWTRAKSTDVKNKDAVQSMYYFLWQLFFAEYGLIALVR", "notes": "full CDS, 401 aa incl. predicted 38-aa plastid transit peptide; untagged (pGWB502, 35S promoter); transient expression in Nicotiana benthamiana leaves; microsomes"}},
  "key": {"[1]": {"substrate": "CC(C)=CCc1cc(/C=C/C(=O)O)ccc1O", "test": "HPLC assay of artepillin C formation; non-linear least-squares fit", "type": "biochemical, Artemisia capillaris", "details": "N. benthamiana microsomes, 0.5 mM DMAPP, 10 mM MgCl2, 30 °C, 20 min, 15.6-250 µM drupanin, mean ± SE"}, "[2]": {"substrate": "CC(C)=CCOP(=O)(O)OP(=O)(O)O", "test": "HPLC assay of artepillin C formation; non-linear least-squares fit", "type": "biochemical, Artemisia capillaris", "details": "N. benthamiana microsomes, 0.5 mM drupanin, 10 mM MgCl2, 30 °C, 20 min, 12.5-200 µM DMAPP, mean ± SE"}},
  "data": [
    {"protein": "B1", "values": [
      {"measurement": "Km", "setting": "[1]", "value": "50 ± 5", "unit": "µM"},
      {"measurement": "Km", "setting": "[2]", "value": "130 ± 20", "unit": "µM"}
    ]}
  ]
}
